Molecular target: Presenilin 1 (mouse (endogenous in primary neurons of CD1 mice)), P49769
Experiment: FRET or BRET
Settings: remark: other sources report otherwise

- FRET efficiency (E FRET), vehicle treated cells: 7.07%
B1: amyloid β precursor protein, P12023 18-770 (natural protein)
chain: LEVPTDGNAGLLAEPQIAMFCGKLNMHMNVQNGKWESDPSGTKTCIGTKEGILQYCQEVYPELQITNVVEANQPVTIQNWCKRGRKQCKTHTHIVIPYRCLVGEFVSDALLVPDKCKFLHQERMDVCETHLHWHTVAKETCSEKSTNLHDYGMLLPCGIDKFRGVEFVCCPLAEESDSVDSADAEEDDSDVWWGGADTDYADGGEDKVVEVAEEEEVADVEEEEADDDEDVEDGDEVEEEAEEPYEEATERTTSTATTTTTTTESVEEVVREVCSEQAETGPCRAMISRWYFDVTEGKCVPFFYGGCGGNRNNFDTEEYCMAVCGSVSTQSLLKTTSEPLPQDPDKLPTTAASTPDAVDKYLETPGDENEHAHFQKAKERLEAKHRERMSQVMREWEEAERQAKNLPKADKKAVIQHFQEKVESLEQEAANERQQLVETHMARVEAMLNDRRRLALENYITALQAVPPRPHHVFNMLKKYVRAEQKDRQHTLKHFEHVRMVDPKKAAQIRSQVMTHLRVIYERMNQSLSLLYNVPAVAEEIQDEVDELLQKEQNYSDDVLANMISEPRISYGNDALMPSLTETKTTVELLPVNGEFSLDDLQPWHPFGVDSVPANTENEVEPVDARPAADRGLTTRPGSGLTNIKTEEISEVKMDAEFGHDSGFEVRHQKLVFFAEDVGSNKGAIIGLMVGGVVIATVIVITLVMLKKKQYTSIHHGVVEVDAAVTPEERHLSKMQQNGYENPTYKFFEQMQN

Reference: paper PMC3534898
